According to patent publication US20140235553:

Key:
[1] = tested on: NTD-αA crystallin fusion protein
[2] = tested on: NTD-αB crystallin fusion protein

lysozyme was tested, and the “CLA: suppression of chemically-induced aggregation of substrate protein” value [1] was “These proteins also displayed CLA, as evidenced by suppressing the chemically-induced aggregation of substrate proteins such as lysozyme” and the “CLA: suppression of chemically-induced aggregation of substrate protein” value [2] was “These proteins also displayed CLA, as evidenced by suppressing the chemically-induced aggregation of substrate proteins such as lysozyme”.
